# Assay results published in article PMC3917153 (Biochemistry, 2013).
# B1: GST-yeIF1A ΔC (lacking aa. 108-153) (domain or fragment, S. cerevisiae, UniProt P38912 1-107, looked up)
# chain: MGKKNTKGGKKGRRGKNDSDGPKRELIYKEEGQEYAQITKMLGNGRVEASCFDGNKRMAHIRGKLRKKVWMGQGDIILVSLRDFQDDQCDVVHKYNLDEARTLKNQG
# Molecular target: T1, GB-yeIF5-B6 (S. cerevisiae, UniProt P38431 241-405)
# T1 sequence (looked up): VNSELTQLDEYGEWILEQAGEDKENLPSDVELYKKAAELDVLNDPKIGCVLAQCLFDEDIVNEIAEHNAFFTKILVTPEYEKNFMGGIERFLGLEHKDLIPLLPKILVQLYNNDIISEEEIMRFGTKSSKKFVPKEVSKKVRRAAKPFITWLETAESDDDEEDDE
# Assay: pull-down
binder,measurement,value
B1,binding result,binds
